Values belong to the binder of their own block, whether it stands above or below them.
Legend:
[1] = molecular target: T1, Cynomolgus monkey cMet antigen (cynomolgus monkey, UniProt A0A2K5UM36 25-932); test: ELISA, antigen coated at 1 ug/mL, VHH-Fc titrated
T1 construct: treated as one molecule; also called cynomolgus monkey cMet-His antigen; Cyno cMet

[2] = molecular target: T2, Human cMet antigen (human, UniProt P08581 25-932); test: ELISA, antigen coated at 1 ug/mL, VHH-Fc titrated
T2 construct: treated as one molecule; also called Human cMet-His antigen
T2 sequence (P08581 25-932): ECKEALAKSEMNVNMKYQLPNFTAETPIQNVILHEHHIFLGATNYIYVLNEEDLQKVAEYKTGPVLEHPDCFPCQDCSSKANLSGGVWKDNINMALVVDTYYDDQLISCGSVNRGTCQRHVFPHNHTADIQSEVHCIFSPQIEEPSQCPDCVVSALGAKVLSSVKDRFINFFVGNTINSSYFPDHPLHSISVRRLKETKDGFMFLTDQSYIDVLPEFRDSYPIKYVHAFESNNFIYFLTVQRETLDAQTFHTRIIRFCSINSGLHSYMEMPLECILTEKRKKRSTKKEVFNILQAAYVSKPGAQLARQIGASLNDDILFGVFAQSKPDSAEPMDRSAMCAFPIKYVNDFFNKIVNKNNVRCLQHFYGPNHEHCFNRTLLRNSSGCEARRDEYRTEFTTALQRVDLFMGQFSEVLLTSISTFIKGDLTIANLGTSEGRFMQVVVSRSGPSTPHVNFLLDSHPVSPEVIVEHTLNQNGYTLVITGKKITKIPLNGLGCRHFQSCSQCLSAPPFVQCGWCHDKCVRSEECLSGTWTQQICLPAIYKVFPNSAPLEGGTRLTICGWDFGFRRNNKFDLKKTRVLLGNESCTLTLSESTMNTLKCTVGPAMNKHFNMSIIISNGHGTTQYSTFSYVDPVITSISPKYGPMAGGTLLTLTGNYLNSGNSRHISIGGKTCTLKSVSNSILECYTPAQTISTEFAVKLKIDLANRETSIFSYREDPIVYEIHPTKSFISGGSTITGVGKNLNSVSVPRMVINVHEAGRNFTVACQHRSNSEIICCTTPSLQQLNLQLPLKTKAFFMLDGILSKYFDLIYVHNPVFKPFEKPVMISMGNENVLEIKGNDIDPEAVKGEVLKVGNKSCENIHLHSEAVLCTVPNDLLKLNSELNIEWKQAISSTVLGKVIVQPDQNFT

[3] = molecular target: T3, human cMet on cells (human, UniProt P08581 25-1390); test: FACS competition on EBC-1 cells, HGF-His as the ligand detected, VHH-Fc from 100 nM
T3 construct: whole, on cells; Cell lines: CHO-S-cMet, CHOK1-hucMet, EBC-1, MKN45, NCI-H1975; the cell line is named under assay; also called CHO-S-cMet; CHOK1-hucMet
T3 sequence (P08581 25-1390): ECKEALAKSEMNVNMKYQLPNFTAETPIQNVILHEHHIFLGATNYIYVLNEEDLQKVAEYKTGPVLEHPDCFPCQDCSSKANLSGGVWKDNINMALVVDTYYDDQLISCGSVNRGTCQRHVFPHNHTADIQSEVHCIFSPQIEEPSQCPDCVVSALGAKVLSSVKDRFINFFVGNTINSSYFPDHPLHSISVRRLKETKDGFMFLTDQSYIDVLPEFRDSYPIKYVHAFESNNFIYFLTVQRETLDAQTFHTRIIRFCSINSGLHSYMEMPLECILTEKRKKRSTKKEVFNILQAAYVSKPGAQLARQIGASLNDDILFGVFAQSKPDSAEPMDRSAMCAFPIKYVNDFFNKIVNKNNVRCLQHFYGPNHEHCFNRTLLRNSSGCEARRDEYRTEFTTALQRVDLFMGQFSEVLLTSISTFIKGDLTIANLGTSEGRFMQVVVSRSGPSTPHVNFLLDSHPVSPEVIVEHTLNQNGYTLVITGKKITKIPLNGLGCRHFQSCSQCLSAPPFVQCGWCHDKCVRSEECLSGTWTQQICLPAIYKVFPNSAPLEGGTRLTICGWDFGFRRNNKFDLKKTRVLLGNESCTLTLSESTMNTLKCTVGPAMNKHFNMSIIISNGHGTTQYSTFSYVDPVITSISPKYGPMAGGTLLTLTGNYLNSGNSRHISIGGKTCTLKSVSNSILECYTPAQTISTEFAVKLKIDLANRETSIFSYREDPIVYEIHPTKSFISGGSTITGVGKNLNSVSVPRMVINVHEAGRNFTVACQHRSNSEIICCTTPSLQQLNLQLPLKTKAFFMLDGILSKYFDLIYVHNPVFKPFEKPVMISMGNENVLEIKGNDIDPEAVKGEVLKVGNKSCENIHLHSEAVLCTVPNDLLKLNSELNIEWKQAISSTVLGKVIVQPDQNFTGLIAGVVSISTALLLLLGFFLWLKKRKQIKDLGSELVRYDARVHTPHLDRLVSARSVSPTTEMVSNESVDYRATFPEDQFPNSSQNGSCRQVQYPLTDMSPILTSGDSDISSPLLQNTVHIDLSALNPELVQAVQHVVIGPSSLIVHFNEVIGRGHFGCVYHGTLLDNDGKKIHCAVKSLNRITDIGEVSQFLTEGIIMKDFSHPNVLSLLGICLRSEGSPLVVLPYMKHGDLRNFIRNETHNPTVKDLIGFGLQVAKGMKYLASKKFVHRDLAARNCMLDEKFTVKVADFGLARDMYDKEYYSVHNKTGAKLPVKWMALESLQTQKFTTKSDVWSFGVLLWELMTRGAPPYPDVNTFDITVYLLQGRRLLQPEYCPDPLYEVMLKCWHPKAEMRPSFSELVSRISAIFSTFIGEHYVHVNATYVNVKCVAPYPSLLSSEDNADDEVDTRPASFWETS

[4] = molecular target: T3, human cMet on cells; test: FACS, VHH-His on EBC-1 cells
[5] = molecular target: T1, Cynomolgus monkey cMet antigen; test: SPR method I, antigen on CM5 chip, VHH-His injected, 1:1 model
[6] = molecular target: T2, Human cMet antigen; test: as above
[7] = molecular target: T3, human cMet on cells; test: FACS, VHH-His on MKN45 cells
[8] = molecular target: T3, human cMet on cells; test: FACS, VHH-His on CHOK1-hucMet cells
[9] = molecular target: T3, human cMet on cells; test: FACS, VHH-His on MKN45 cells; remark: listed apart in the source
[10] = molecular target: T3, human cMet on cells; test: FACS, VHH-His on CHOK1-hucMet cells; remark: listed apart in the source
[11] = molecular target: T3, human cMet on cells; test: FACS, VHH-His on MKN45 cells; remark: listed apart in the source
[12] = molecular target: T4, human EGFR on cells (human, UniProt P00533 25-1210); test: FACS, VHH-His on CHOK1-huEGFR cells
T4 construct: whole, on cells; the cell line is named under assay; also called CHO-S-EGFR; CHOK1-huEGFR

[13] = molecular target: T5, Human EGFR antigen (SPR of Example 4.4) (human, UniProt P00533 25-645); test: SPR method I, antigen on CM5 chip, VHH-His injected, 1:1 model
[14] = molecular target: T6, Cyno EGFR antigen (SPR of Example 4.4) (cynomolgus monkey, UniProt A0A2K5WK39 25-645); test: as above
[15] = molecular target: T4, human EGFR on cells; test: FACS, VHH-His on MDA-MB-468 cells
[16] = molecular target: T5, Human EGFR antigen (SPR of Example 4.4); test: SPR method II, antibody captured on Protein A chip, antigen injected, 1:1 model
[17] = molecular target: T6, Cyno EGFR antigen (SPR of Example 4.4); test: as above
[18] = molecular target: T1, Cynomolgus monkey cMet antigen; test: as above
[19] = molecular target: T2, Human cMet antigen; test: as above

T1 sequence (A0A2K5UM36 entry or part of it limits assumed, form in doubt): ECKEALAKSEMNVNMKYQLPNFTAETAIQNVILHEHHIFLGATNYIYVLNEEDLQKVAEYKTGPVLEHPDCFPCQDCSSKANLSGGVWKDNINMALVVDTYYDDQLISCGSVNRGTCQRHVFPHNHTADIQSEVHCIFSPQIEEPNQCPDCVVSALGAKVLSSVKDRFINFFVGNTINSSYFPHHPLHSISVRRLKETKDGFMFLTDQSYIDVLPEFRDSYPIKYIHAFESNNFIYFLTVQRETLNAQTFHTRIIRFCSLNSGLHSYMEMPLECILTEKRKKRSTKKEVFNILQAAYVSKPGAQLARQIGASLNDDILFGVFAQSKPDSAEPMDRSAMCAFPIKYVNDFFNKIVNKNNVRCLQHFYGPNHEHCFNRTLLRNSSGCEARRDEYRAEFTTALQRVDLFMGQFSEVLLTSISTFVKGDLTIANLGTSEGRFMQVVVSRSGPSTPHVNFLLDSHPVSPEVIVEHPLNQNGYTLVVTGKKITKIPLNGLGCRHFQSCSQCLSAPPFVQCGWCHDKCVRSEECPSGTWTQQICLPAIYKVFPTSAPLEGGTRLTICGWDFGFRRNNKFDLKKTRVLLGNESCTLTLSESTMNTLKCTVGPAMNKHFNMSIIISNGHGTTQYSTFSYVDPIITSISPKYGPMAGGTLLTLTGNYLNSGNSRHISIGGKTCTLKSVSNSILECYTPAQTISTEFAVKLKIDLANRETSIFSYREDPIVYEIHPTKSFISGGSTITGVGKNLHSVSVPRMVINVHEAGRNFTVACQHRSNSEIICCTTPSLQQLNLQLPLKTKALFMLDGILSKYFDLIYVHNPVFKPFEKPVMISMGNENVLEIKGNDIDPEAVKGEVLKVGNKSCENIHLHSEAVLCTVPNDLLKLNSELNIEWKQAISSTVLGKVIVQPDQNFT

EC50 [4]: 2.5 nM
Maximum MFI value [4]: 143000 MFI
B4: VHH8 (VHH, not shown: small tags and cut ends)
VHH: ESQLLESGGGLVQPGGSLRLSCVASGFTISRSIMSWYRQAPGKERDWVASIGSAGNTNYVDSVKGRFTISRDNSKNTVYLQMNSLRAEDTAVYYCKTTLAVSFSEYWGQGTLVTVSS
notes: Humanized 9A2 anti-cMet VHH-His

EC50 [4]: 1.63 nM
Maximum MFI value [4]: 194000 MFI
B5: VHH9 (VHH, not shown: small tags and cut ends)
VHH: ESQLLESGGGLVQPGGSLRLSCVASGFTISRSIMSWYRQAPGKERDWVASIGSAGNTNYVDSVKGRFTISRDVSKNTLYLQMNSLRAEDTAVYYCKTTLAVSFSEYWGQGTLVTVSS
notes: as for B4

EC50 [8]: 0.809 nM
Maximum MFI value [8]: 63400 MFI
B8: dpzn7A12m4.m1_3 (VHH, not shown: small tags and cut ends)
VHH: EVQLVESGGGLIQAGGSLRLSCTASGNIFSSYHMGWFRQAPGKQREFIAYITTREITNYADSVKGRFTISRDNAKNTVYLQMNSLRPEDTAVYYCIADQSREIRRSWGQGTLVTVSS
notes: Humanized + PTM removal + primary immunogenicity removal, anti-cMet VHH-His

EC50 [10]: 2.1 nM
B10: dpzn7A12m4.ml_1.m1 (VHH, not shown: small tags and cut ends)
VHH: EVQLVESGGGLVQPGGSLRLSCTASGNIFSSYHMGWFRQAPGKQREFIAYITTREITNYADSVKGRFTISRDNSKNTLYLQMNSLRAEDTAVYYCIADQSREIRRSWGQGTLVTVSS
notes: Humanized + PTM removal + secondary immunogenicity removal, anti-cMet VHH-His; also called hu7A12

EC50 [8]: 0.716 nM
Maximum MFI value [8]: 73900 MFI
B11: dpzn7A12m4.m1_1 (VHH, not shown: small tags and cut ends)
VHH: EVQLVESGGGLIQAGGSLRLSCTASGNIFSSYHMGWFRQAPGKQREFIAYITTREITNYADSVKGRFTISRDNSKNTLYLQMNSLRAEDTAVYYCIADQSREIRRSWGQGTLVTVSS
notes: as for B8

Maximum MFI value [12]: 2760 MFI
Kd [13]: 37.4 nM
koff [13]: 0.0258 s⁻¹
kon [13]: 691000 M⁻¹ s⁻¹
Kd [14]: 17.2 nM
koff [14]: 0.01 s⁻¹
kon [14]: 581000 M⁻¹ s⁻¹
Maximum MFI value [15]: 5830 MFI
Maximum MFI value ([15]; record 2): 5160 MFI
B14: V-n10A1 anti-EGFR VHH-His (VHH, not shown: small tags and cut ends)
VHH: QVQLVESGGGLVQAGGSLRLSCAASGRTGSLHAMGWFRQAPGKERERVATLNLSDGSAVTADSVKGRFTISTDNTKNSVYLQMNSLKPEDTAVYYCTASRSPSGIRYYKPDYWGQGTQVTVSS
notes: Monovalent parent VHH

The next lines start with the binder.

B1: V-n9A2 anti-cMet VHH-Fc (Fc fusion, not shown: a dimerising Fc or GST)
chain: QSQLAESGGGLVQSGGSLGLSCVASGFTISRSIMSWYRQPPGKERDWVASIGSAGNTNYVDSVKGRFTISRDVAKNTVYLQMNSLKPEDTAVYYCKTTLAVSFSEYWGQGTQVTVSS
notes: Bivalent VHH-Fc
EC50 [1]: 0.105 nM
EC50 [2]: 0.108 nM
MFI value at the highest concentration [3]: 82200 MFI
ratio of MFI value at the highest concentration to that at the lowest concentration [3]: 1.12

B2: VHH10 (VHH, not shown: small tags and cut ends)
VHH: QSQLVESGGGLVKPGGSLRLSCVASGFTISRSIMSWYRQAPGKERDWVASIGSAGNTNYVDSVKGRFTISRDNAKNSLYLQMNSLRAEDTAVYYCKTTLAVSFSEYWGQGTLVTVSS
notes: Humanized 9A2 anti-cMet VHH-His; also called hu9A2
EC50 [4]: 1.63 nM
Maximum MFI value [4]: 233000 MFI

B3: V-n9A2 anti-cMet VHH-His (VHH, not shown: small tags and cut ends)
VHH: QSQLAESGGGLVQSGGSLGLSCVASGFTISRSIMSWYRQPPGKERDWVASIGSAGNTNYVDSVKGRFTISRDVAKNTVYLQMNSLKPEDTAVYYCKTTLAVSFSEYWGQGTQVTVSS
notes: Monovalent parent VHH
Kd [5]: 70.3 nM
koff [5]: 0.0072 s⁻¹
kon [5]: 102000 M⁻¹ s⁻¹
Kd [6]: 16 nM
koff [6]: 0.0029 s⁻¹
kon [6]: 181000 M⁻¹ s⁻¹
EC50 [4]: 1.56 nM
Maximum MFI value [4]: 291000 MFI

B6: V-n7A12 anti-cMet VHH-Fc (Fc fusion, not shown: a dimerising Fc or GST)
chain: EVQLVESGGGLVQAGGSLRLSCVASGNIFSSNHMGWFRQAPGKQREFIAYITTREITNYADSVKGRFTISRDNTKNTVYLQMNVLKPEDTAVYYCIADQSREIRRSWGQGTQVTVSS
notes: Bivalent VHH-Fc
EC50 [1]: 0.063 nM
EC50 [2]: 0.066 nM
MFI value at the highest concentration [3]: 40600 MFI
ratio of MFI value at the highest concentration to that at the lowest concentration [3]: 2.22

B7: 7A12-M3 (VHH, not shown: small tags and cut ends)
VHH: EVQLVESGGGLIQPGGSLRLSCTASGNIFSSNHMGWFRQAPGKQLEWIAYITTREITNYADSVKGRFTISRDNSKNTVYLQMNNLRSEDTAVYYCIADQSREIRRSWGQGTQVTVSS
Maximum MFI value [7]: 57400 MFI

B9: 7A12-M4 (VHH, not shown: small tags and cut ends)
VHH: EVQLVESGGGLIQAGGSLRLSCTASGNIFSSNHMGWFRQAPGKQREFIAYITTREITNYADSVKGRFTISRDNSKNTVYLQMNNLRSEDTAVYYCIADQSREIRRSWGQGTLVTVSS
notes: Humanized anti-cMet VHH-His
EC50 [9]: 4.11 nM
Maximum MFI value [9]: 44700 MFI

B12: V-n7A12 anti-cMet VHH-His (VHH, not shown: small tags and cut ends)
VHH: EVQLVESGGGLVQAGGSLRLSCVASGNIFSSNHMGWFRQAPGKQREFIAYITTREITNYADSVKGRFTISRDNTKNTVYLQMNVLKPEDTAVYYCIADQSREIRRSWGQGTQVTVSS
notes: Monovalent parent VHH
EC50 [9]: 3.76 nM
Maximum MFI value [9]: 35600 MFI
Kd [5]: 96 nM
koff [5]: 0.00439 s⁻¹
kon [5]: 45800 M⁻¹ s⁻¹
Kd [6]: 0.301 nM
koff [6]: 0.000153 s⁻¹
kon [6]: 509000 M⁻¹ s⁻¹
EC50 [11]: 3.76 nM
Maximum MFI value [11]: 35600 MFI
EC50 [10]: 1.94 nM
EC50 [8]: 1.01 nM
Maximum MFI value [8]: 74200 MFI

B13: V-n9A10 anti-cMet VHH-Fc (Fc fusion, not shown: a dimerising Fc or GST)
chain: QVQLVESGGGLVQPGGSLRLSCEASGFTFSSYVMSWYRQAPGKERELVALISSTTGSSTKYGDSVKGRFTISRDNAKNTVYLQMNSLKPEDTAVYYCNAMIGWNNHWGQGTHVTVSS
MFI value at the highest concentration [3]: 77200 MFI
ratio of MFI value at the highest concentration to that at the lowest concentration [3]: 1.14

B15: V-F42 (hu9B8_Fc)2 (Fc fusion, not shown: a dimerising Fc or GST)
chain: EVQLLESGGGLVQPGGSLRLSCAASGLTFSYYAMAWFRQAPGKEREFVAAINWNQGNTYNTDSVKGRFTISRDNSKNTVYLQMNSLTPEDTAVYYCAVRYNQASYLVARSSDYNYWGQGTLVTVSS
notes: dimeric VHH with an Fc tag at the C-terminus
Kd [16]: 11.9 nM
koff [16]: 0.000392 s⁻¹
kon [16]: 33000 M⁻¹ s⁻¹
Kd [17]: 2.05 nM
koff [17]: 8.04e-05 s⁻¹
kon [17]: 39200 M⁻¹ s⁻¹

B16: V-n5B10 anti-EGFR VHH-His (VHH, not shown: small tags and cut ends)
VHH: AVQLVDSGGGLVQPGGSLRLDCSASGTIIGTYTMAWYRQAPGKQREMVAIITPGGGSHHADSVKGRFTISRDNGKSTVYLQMSSLKFEDTAVYYCNAKARWGTTEYWGQGTQVTVSS
notes: Monovalent parent VHH
Kd [13]: 23.2 nM
koff [13]: 0.00536 s⁻¹
kon [13]: 232000 M⁻¹ s⁻¹
Kd [14]: 7.36 nM
koff [14]: 0.00384 s⁻¹
kon [14]: 522000 M⁻¹ s⁻¹
EC50 [15]: 15 nM
Maximum MFI value [15]: 111000 MFI

B17: Reference benchmark antibody ABT-700 (antibody, V domains shown)
VH: QVQLVQSGAEVKKPGASVKVSCKASGYIFTAYTMHWVRQAPGQGLEWMGWIKPNNGLANYAQKFQGRVTMTRDTSISTAYMELSRLRSDDTAVYYCARSEITTEFDYWGQGTLVTVSS
VL: DIVMTQSPDSLAVSLGERATINCKSSESVDSYANSFLHWYQQKPGQPPKLLIYRASTRESGVPDRFSGSGSGTDFTLTISSLQAEDVAVYYCQQSKEDPLTFGGGTKVEIKR
Kd [18]: 0.584 nM
koff [18]: 7.14e-05 s⁻¹
kon [18]: 122000 M⁻¹ s⁻¹
Kd [19]: 0.681 nM
koff [19]: 7.38e-05 s⁻¹
kon [19]: 108000 M⁻¹ s⁻¹

B18: 7A12-M2 (VHH, not shown: small tags and cut ends)
VHH: EVQLVESGGGLIQPGGSLRLSCKASGNIFSSNHMGWFRQAPGKQLEWVAYITTREITNYADSVKGRFTISRDNSKNTVYLQMNNLRSEDTAVYYCIADQSREIRRSWGQGTLVTVSS
Maximum MFI value [7]: 36700 MFI

B19: 7A12-M1 (VHH, not shown: small tags and cut ends)
VHH: EVQLVESGGGLVQPGGSLRLSCAASGNIFSSNHMGWVRQAPGKGLEWVAYITTREITNYADSVKGRFTISRDNSKNTVYLQMNSLRAEDTAVYYCIADQSREIRRSWGQGTLVTVSS
notes: Humanized anti-cMet VHH-His
EC50 [9]: 88.1 nM
Maximum MFI value [9]: 56600 MFI

Reference: patent publication EP4814014A1, “BINDING MOLECULE AND ANTIBODY-DRUG CONJUGATE AND USE THEREOF” (priority 2023, dated 2025)
